Measured values: US11260100B2, “Compositions targeting the interaction domain between p27Kip1 and Brk and methods of use thereof to inhibit p27 Y phosphorylation and cdk4 activity” (The Research Foundation for the State University of New York, priority 2014, dated 2022)

How the values were obtained:
MCF7-ALT cells = experiment: Long-term proliferation arrest at IC100 (FIG. 15A); format: cell-based, human; conditions: IC100 Palbociclib, doxycycline induced ALT, replenished every two days
Procedure: FIGS. 15A-15C: ALT and PD treatment increases senescence, a clinical goal. FIG. 15A: MCF7-ALT cells were treated with IC100 concentration of Palbociclib (PD) or doxycycline to induce ALT. Drugs were replenished every two days and proliferation was determined by cell counting as indicated. Proliferation rates were standardized to the rate of proliferation seen in DMSO treated cells (control). PD treated cells were arrested for 10 days, before escape (proliferation) was detected. ALT expressing cells were arrested for 18 days before escape (proliferation) was detected. ALT expressing and PD treated cells were arrested for 30 days, with no escape detected. […] Proliferation was assessed by counting. […] Viability was measured by trypan blue staining and the ALT expressing, PD treated cells that weren't growing were viable. […]
MCF7-ALT cells were treated with a IC100 concentration of Palbociclib (PD) or doxycycline to induce ALT. Drugs were replenished every two days and proliferation was determined by cell counting as indicated. […] PD treated cells were arrested for 10 days, before escape (proliferation) was detected. ALT expressing cells were arrested for 18 days before escape (proliferation) was detected. ALT expressing and PD treated cells were arrested for 30 days, with no escape detected. […] Proliferation was assessed by counting. […]

cdk2 = target: T1, cdk2 (Homo sapiens, UniProt P24941); experiment: Immunoblot of cdk2T160 as measure of activated cdk2 (FIG. 10); format: cell-based; conditions: MCF7, drugs at IC50
T1 construct: added to or expressed in MCF7 breast cancer cells on day 2 post plating; endogenous in cells; host or cells: MCF7 (ALT-MCF7 tetracycline-inducible line)
Procedure: FIG. 10: ALT BRK inhibits both CDK4 and CDK2. ALT, Palbociclib alone or in combination were added to or expressed in MCF7 breast cancer cells on day 2 post plating. Drugs were added at their IC50 concentration, based on previous results. ALT is expressed from an ALT-MCF7 tetracycline inducible cell line generated in the Blain lab. When tetracycline is added to the cell culture media, ALT is expressed in these cells. Vector: no tetracycline was added, so no ALT induction was detected. Drugs and media were replaced every two days. Cells were harvested every two days, lysed and used in immunoblot analysis. Actin: loading control. pRBser780 is a phospho-specific antibody that recognizes sites phosphorylated by cdk4, so is a measure of active cdk4. cdk2T160 recognizes a required phosphorylation event on residue […] and is a measure of activated cdk2.
(§1) Additional experiments were performed assessing activity of Brk in combination with Palbociclib. The data presented in FIGS. 9A and 9B reveal that Palbociclib and Brk inhibit proliferation for 2 days, and then resistance is observed (proliferation increases). Alt maintained arrest for roughly 10 days (50% inhibition of proliferation is detected). […] Alt-Brk/Palbociclib combination leads to a more durable cell cycle arrest. Mono therapy treated cells start to become resistant between day 8-10. […]

MCF7 breast cancer cells = experiment: Proliferation with ALT and Palbociclib at IC50 concentration (FIG. 9); format: cell-based, human
Procedure: FIGS. 9A-9B: AltBrk Synergizes with Palbociclib. ALT, Palbociclib, or Brk alone or in combination were added to or expressed in MCF7 breast cancer cells on day 2 post plating. Drugs were added at their IC50 concentration, based on previous results. ALT is expressed from an ALT-MCF7 tetracycline inducible cell line generated in the Blain lab. When tetracycline is added to the cell culture media, ALT is expressed in these cells. Vector: no tetracycline was added, so no ALT induction was detected. (FIG. 9A) Cells were harvested and counted every two days, as a measure of proliferation. Proliferation is plotted as a percentage relative to that seen in the DMSO treated control. Drugs and media were replaced every two days. (FIG. 9B) Viability was measured by trypan blue staining, and plotted relative to viability seen in the DMSO treated control.
as §1

B1: Alt-Brk: alternative splice variant of Brk (SEQ ID NO: 17), 15 KD protein with SH3 domain, lacks kinase domain (protein, listed as Homo sapiens)
chain: MVSRDQAHLGPKYVGLWDFKSRTDEELSFRAGDVFHVARKEEQWWWATLLDEAGGAVAQGYVPHNYLAERETVESEPAGHAGCAALQDLAACRGPAAPERGGVLPQPARACELPQGPEPVPRPAAGRALPEARA
time arrested before escape (proliferation) (MCF7-ALT cells): 18 days | cdk2 activity (cdk2T160) (cdk2): inhibits cdk2 | duration of proliferation inhibition / arrest (MCF7 breast cancer cells; drugs at IC50 concentration, replaced every two days): roughly 10 days | inhibition of proliferation (MCF7 breast cancer cells; during arrest): 50%
